Reference: FireProtDB (doi:10.1016/s0301-4622(99)00140-4)

Conditions: Bos taurus, pH 8, Thermal, DSC, Tris 10 mM, whole UniProt chain shown

B1: Alpha-lactalbumin wild type, P00711 (protein)
chain: MMSFVSLLLVGILFHATQAEQLTKCEVFRELKDLKGYGGVSLPEWVCTTFHTSGYDTQAIVQNNDSTEYGLFQINNKIWCKDDQNPHSSNICNISCDKFLDDDLTDDIMCVKKILDKVGINYWLAHKALCSEKLDQWLCEKL
In the case of B1, the Tm (CaCl2 0.0 mM) is reported as 64.1 °C, the “unfolding enthalpy (calorimetric)” value (CaCl2 0.0 mM) is reported as 64.8 kcal/mol and the Tm (CaCl2 0.1 mM) is reported as 65.2 °C. The “unfolding enthalpy (calorimetric)” value (CaCl2 0.1 mM) was 71.1 kcal/mol, the Tm (CaCl2 1.0 mM) was 67.9 °C and the “unfolding enthalpy (calorimetric)” value (CaCl2 1.0 mM) was 75.6 kcal/mol. For the same protein, the Tm (CaCl2 2.0 mM) was 68.9 °C, the “unfolding enthalpy (calorimetric)” value (CaCl2 2.0 mM) was 76 kcal/mol and the Tm (CaCl2 10.0 mM) was 70 °C. The “unfolding enthalpy (calorimetric)” value (CaCl2 10.0 mM) was 75 kcal/mol.
